Each substance was assayed against NADPH-cytochrome P450 reductase (UniProt P00388).
UniProt P00388, sequence (P00388 whole entry): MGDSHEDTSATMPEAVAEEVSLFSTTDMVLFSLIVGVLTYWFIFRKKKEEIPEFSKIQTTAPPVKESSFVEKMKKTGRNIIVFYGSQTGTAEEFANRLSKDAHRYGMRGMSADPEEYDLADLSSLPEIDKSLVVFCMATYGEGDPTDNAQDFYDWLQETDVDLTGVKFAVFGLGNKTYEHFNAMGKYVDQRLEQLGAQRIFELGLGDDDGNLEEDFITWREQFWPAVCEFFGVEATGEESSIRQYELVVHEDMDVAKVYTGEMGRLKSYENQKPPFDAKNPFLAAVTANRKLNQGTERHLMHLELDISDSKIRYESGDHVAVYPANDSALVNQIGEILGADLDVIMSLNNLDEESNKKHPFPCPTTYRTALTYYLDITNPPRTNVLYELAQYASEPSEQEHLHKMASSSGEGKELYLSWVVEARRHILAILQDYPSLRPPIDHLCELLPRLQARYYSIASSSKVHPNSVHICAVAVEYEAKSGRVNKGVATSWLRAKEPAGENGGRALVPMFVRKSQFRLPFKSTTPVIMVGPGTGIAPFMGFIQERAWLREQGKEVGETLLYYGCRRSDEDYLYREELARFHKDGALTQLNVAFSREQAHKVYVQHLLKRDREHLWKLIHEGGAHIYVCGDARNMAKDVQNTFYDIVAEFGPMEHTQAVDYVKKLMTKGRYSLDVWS

Substance | % of CPR-dependent versus dithionite-dependent reduced P450-CO spectrum
CYP3A4 Y430F mutant (from UniProt P08684 1-503) (enzyme) | 41%
CYP3A4 Y430V mutant (from UniProt P08684 1-503) (enzyme) | 22%
human cytochrome P450 3A4, wild type, untreated (from UniProt P08684 1-503) (enzyme) | 88%
